Test results reported in paper PMC8008175 (The Journal of Biological Chemistry, 2021).
Values belong to the molecule of their own block, whether it stands above or below them.

Legend:
[1] = molecular target: Ubp6 UBL UBL (Saccharomyces cerevisiae) (UniProt P43593); conditions: cited from earlier work
Rpn10-UIM = molecular target: T1, Rpn10-UIM (Saccharomyces cerevisiae, UniProt P38886 204-268, Q261Y); experiment: NMR titration; ^1H-^15N spectra of 150 μM ^15N-UBL with 1× Rpn10-UIM; signal shifts; conditions: both partners purified
T1 construct: Rpn10, Saccharomyces cerevisiae, UniProt P38886, residues 204-268 with a Q261Y mutation for quantification purposes; also called UIM domain of Rpn10; source: E. coli, purified
T1 sequence (looked up): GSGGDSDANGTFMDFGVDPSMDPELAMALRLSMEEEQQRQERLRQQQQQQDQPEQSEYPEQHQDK

full-length Rpn1 [2] = molecular target: T2, full-length Rpn1 (Saccharomyces cerevisiae, UniProt P38764 1-993); experiment: NMR titration; competition: 150 μM ^15N-UBL with 1× Rpn10-UIM, then 0.3× Rpn1^FL (48 μM), then 2× or 3× Rpn10-UIM; conditions: both partners purified
T2 construct: Rpn1, proteasomal subunit, Saccharomyces cerevisiae, UniProt P38764, full length; Unlabeled in the NMR experiments; also called Rpn1^FL; source: E. coli, purified
T2 sequence (looked up): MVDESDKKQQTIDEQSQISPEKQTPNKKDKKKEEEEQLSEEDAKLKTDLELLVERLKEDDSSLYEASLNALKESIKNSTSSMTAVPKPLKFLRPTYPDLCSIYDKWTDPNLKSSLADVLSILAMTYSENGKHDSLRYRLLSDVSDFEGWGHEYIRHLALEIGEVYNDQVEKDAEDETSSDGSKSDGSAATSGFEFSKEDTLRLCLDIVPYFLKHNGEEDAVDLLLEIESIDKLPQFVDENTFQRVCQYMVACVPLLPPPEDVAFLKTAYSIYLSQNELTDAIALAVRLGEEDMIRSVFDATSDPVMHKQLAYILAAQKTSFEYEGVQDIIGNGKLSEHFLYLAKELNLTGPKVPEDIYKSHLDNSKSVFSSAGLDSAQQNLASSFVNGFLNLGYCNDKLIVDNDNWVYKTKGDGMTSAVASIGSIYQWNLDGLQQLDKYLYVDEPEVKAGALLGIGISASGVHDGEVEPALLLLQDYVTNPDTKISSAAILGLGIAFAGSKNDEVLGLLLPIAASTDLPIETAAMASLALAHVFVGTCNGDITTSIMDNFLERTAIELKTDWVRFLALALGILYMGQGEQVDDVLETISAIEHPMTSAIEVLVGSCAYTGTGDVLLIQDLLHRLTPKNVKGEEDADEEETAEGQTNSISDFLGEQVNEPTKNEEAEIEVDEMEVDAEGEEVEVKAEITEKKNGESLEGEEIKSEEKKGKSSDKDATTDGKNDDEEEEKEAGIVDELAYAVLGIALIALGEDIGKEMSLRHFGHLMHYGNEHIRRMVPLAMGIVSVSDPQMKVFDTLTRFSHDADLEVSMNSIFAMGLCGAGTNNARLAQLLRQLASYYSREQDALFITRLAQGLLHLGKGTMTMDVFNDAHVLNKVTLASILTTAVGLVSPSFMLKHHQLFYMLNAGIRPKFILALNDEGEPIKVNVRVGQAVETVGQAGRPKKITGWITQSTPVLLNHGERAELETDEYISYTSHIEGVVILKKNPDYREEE

Rpn1^356-905 [3] = molecular target: T3, Rpn1^356-905 (Saccharomyces cerevisiae, UniProt P38764 356-905); experiment: NMR titration; ^1H-^15N spectra of ^15N-UBL with unlabeled Rpn1^356-905; 50 mM Tris-Cl, 200 mM KCl, 5% glycerol, 5 mM β-mercaptoethanol, pH 7.4; 21-25 °C; conditions: both partners purified
T3 construct: also called PC repeat region construct; source: E. coli, purified
T3 sequence (looked up): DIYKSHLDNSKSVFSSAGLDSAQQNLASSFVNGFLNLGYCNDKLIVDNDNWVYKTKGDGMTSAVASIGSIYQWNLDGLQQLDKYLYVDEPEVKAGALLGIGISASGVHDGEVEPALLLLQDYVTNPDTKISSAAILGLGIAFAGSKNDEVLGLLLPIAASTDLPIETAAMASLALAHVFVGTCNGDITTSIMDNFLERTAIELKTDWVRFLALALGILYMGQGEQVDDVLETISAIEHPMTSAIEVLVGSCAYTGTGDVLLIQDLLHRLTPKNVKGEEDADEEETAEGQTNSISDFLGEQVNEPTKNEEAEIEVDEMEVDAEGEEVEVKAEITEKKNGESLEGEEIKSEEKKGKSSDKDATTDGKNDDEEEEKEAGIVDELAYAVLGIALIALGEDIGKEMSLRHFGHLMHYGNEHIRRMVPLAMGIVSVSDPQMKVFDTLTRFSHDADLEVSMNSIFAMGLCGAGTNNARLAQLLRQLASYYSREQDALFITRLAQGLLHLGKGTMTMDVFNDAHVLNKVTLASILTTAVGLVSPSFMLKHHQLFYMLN

Rpn1^391-642 [4] = molecular target: T4, Rpn1^391-642 (Saccharomyces cerevisiae, UniProt P38764 391-642); experiment: NMR titration; ^1H-^15N spectra, CSPs and ^15N R2 of 150 μM ^15N-UBL or ^15N-^dK48-Ub2 with unlabeled Rpn1^391-642; 50 mM HEPES, 50 mM KCl, 1 mM TCEP, pH 7.6; 21-25 °C; conditions: both partners purified
T4 construct: Used unlabeled, and ^15N-enriched for the titration with Ubp6-UBL; source: E. coli, purified
T4 sequence (looked up): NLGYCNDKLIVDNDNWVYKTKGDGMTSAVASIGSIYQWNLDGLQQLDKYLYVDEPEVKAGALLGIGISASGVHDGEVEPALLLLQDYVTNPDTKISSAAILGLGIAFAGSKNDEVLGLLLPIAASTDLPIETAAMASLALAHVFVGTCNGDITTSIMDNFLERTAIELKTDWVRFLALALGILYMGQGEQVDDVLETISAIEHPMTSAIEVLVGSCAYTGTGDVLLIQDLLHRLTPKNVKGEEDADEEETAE

full-length Rpn1 [5] = molecular target: T2, full-length Rpn1; experiment: NMR titration; ^1H-^15N spectra of the ^15N-enriched protein or UBL domain with unlabeled Rpn1^FL (equimolar; excess for Ddi1); signal attenuation; 20 mM sodium phosphate, 150 mM NaCl, 1 mM TCEP, pH 6.8; 21-25 °C; conditions: both partners purified
Rpn1^356-905 [6] = molecular target: T3, Rpn1^356-905; experiment: NMR titration; competition: equimolar ^15N-UBL and Rpn1^356-905 with unlabeled competitor added stepwise (molar ratios 1 and 4); 50 mM Tris-Cl, 200 mM KCl, 5% glycerol, 5 mM β-mercaptoethanol, pH 7.4; 21-25 °C; conditions: both partners purified
Rpn1^391-642 [7] = molecular target: T4, Rpn1^391-642; experiment: NMR titration; unlabeled Ubp6-UBL titrated into ^15N-Rpn1^391-642 or ^15N-Rpn1^391-642(AKAA); CSPs fitted to a single-site binding model, Kd as a global parameter; 50 mM HEPES, 50 mM KCl, 1 mM TCEP, pH 7.6; 21-25 °C; conditions: both partners purified
Rpn1^391-642(AKAA) = molecular target: T5, Rpn1^391-642(AKAA) (Saccharomyces cerevisiae, UniProt P38764 391-642, L430A | D431K | Q434A | Q435A); experiment: as above; conditions: both partners purified
T5 construct: ^15N-enriched in the titration; source: E. coli, purified
T5 sequence (looked up): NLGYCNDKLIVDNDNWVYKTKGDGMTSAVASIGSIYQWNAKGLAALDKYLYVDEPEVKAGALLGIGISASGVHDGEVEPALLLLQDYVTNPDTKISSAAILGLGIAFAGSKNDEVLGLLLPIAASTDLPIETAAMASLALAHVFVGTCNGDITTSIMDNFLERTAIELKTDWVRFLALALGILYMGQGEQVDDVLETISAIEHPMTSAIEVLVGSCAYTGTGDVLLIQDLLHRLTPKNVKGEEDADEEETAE

binding result (full-length Rpn1 [5]): binds
B3: full-length Rad23 (natural protein, Saccharomyces cerevisiae, UniProt P32628 1-398, looked up)
chain: MVSLTFKNFKKEKVPLDLEPSNTILETKTKLAQSISCEESQIKLIYSGKVLQDSKTVSECGLKDGDQVVFMVSQKKSTKTKVTEPPIAPESATTPGRENSTEASPSTDASAAPAATAPEGSQPQEEQTATTERTESASTPGFVVGTERNETIERIMEMGYQREEVERALRAAFNNPDRAVEYLLMGIPENLRQPEPQQQTAAAAEQPSTAATTAEQPAEDDLFAQAAQGGNASSGALGTTGGATDAAQGGPPGSIGLTVEDLLSLRQVVSGNPEALAPLLENISARYPQLREHIMANPEVFVSMLLEAVGDNMQDVMEGADDMVEGEDIEVTGEAAAAGLGQGEGEGSFQVDYTPEDDQAISRLCELGFERDLVIQVYFACDKNEEAAANILFSDHAD
notes: Rad23, UBL-UBA shuttle protein, Saccharomyces cerevisiae, UniProt P32628, full length; ^15N-enriched; source: E. coli, purified

binding result (full-length Rpn1 [5]): binds
B4: full-length Ubp6 (enzyme, Saccharomyces cerevisiae, UniProt P43593 1-499, looked up)
chain: MSGETFEFNIRHSGKVYPITLSTDATSADLKSKAEELTQVPSARQKYMVKGGLSGEESIKIYPLIKPGSTVMLLGTPDANLISKPAKKNNFIEDLAPEQQVQQFAQLPVGFKNMGNTCYLNATLQALYRVNDLRDMILNYNPSQGVSNSGAQDEEIHKQIVIEMKRCFENLQNKSFKSVLPIVLLNTLRKCYPQFAERDSQGGFYKQQDAEELFTQLFHSMSIVFGDKFSEDFRIQFKTTIKDTANDNDITVKENESDSKLQCHISGTTNFMRNGLLEGLNEKIEKRSDLTGANSIYSVEKKISRLPKFLTVQYVRFFWKRSTNKKSKILRKVVFPFQLDVADMLTPEYAAEKVKVRDELRKVEKEKNEKEREIKRRKFDPSSSENVMTPREQYETQVALNESEKDQWLEEYKKHFPPNLEKGENPSCVYNLIGVITHQGANSESGHYQAFIRDELDENKWYKFNDDKVSVVEKEKIESLAGGGESDSALILMYKGFGL
notes: Ubp6, deubiquitinase with a UBL domain, Saccharomyces cerevisiae, UniProt P43593, full length; source: E. coli, purified

binding result (Rpn1^391-642 [4]): binds | binding result (Rpn1^356-905 [6]): binds | binding result (full-length Rpn1 [5]): binds
B5: Rad23-UBL (residues 2-77) (domain or fragment, Saccharomyces cerevisiae, UniProt P32628 2-77, looked up)
chain: VSLTFKNFKKEKVPLDLEPSNTILETKTKLAQSISCEESQIKLIYSGKVLQDSKTVSECGLKDGDQVVFMVSQKKS
notes: Rad23, Saccharomyces cerevisiae, UniProt P32628, UBL domain, residues 2-77; also called UBL domain of Rad23; source: E. coli, purified

binding result (full-length Rpn1 [5]): binds
B6: full-length Dsk2 (natural protein, Saccharomyces cerevisiae, UniProt P48510 1-373, looked up)
chain: MSLNIHIKSGQDKWEVNVAPESTVLQFKEAINKANGIPVANQRLIYSGKILKDDQTVESYHIQDGHSVHLVKSQPKPQTASAAGANNATATGAAAGTGATPNMSSGQSAGFNPLADLTSARYAGYLNMPSADMFGPDGGALNNDSNNQDELLRMMENPIFQSQMNEMLSNPQMLDFMIQSNPQLQAMGPQARQMLQSPMFRQMLTNPDMIRQSMQFARMMDPNAGMGSAGGAASAFPAPGGDAPEEGSNTNTTSSSNTGNNAGTNAGTNAGANTAANPFASLLNPALNPFANAGNAASTGMPAFDPALLASMFQPPVQASQAEDTRPPEERYEHQLRQLNDMGFFDFDRNVAALRRSGGSVQGALDSLLNGDV
notes: Dsk2, UBL-UBA shuttle protein, Saccharomyces cerevisiae, UniProt P48510, full length; ^15N-enriched; source: E. coli, purified

Continued, molecule first:

Molecule: Rpn1 391-642 (from UniProt P38764)
Kd [1]: 40 µM

B1: Dsk2-UBL (domain or fragment, Saccharomyces cerevisiae)
chain: SLNIHIKSGQDKWEVNVAPESTVLQFKEAINKANGIPVANQRLIYSGKILKDDQTVESYHIQDGHSVHLVKSQPKPLDLQPSLIS
notes: Dsk2, Saccharomyces cerevisiae, UniProt P48510, UBL domain, residues 2-77; also called UBL domain of Dsk2; source: E. coli, purified
binding result (Rpn10-UIM): binds | binding result (full-length Rpn1 [2]): binds | binding result (Rpn1^356-905 [3]): binds | binding result (Rpn1^391-642 [4]): binds

B2: Rad23-UBL (residues 1-73) (domain or fragment, Saccharomyces cerevisiae, UniProt P32628 1-73, looked up)
chain: MVSLTFKNFKKEKVPLDLEPSNTILETKTKLAQSISCEESQIKLIYSGKVLQDSKTVSECGLKDGDQVVFMVS
notes: ^15N-enriched; source: E. coli, purified
binding result (full-length Rpn1 [2]): binds

B7: Ubp6-UBL (domain or fragment, Saccharomyces cerevisiae, UniProt P43593 2-81, looked up)
chain: SGETFEFNIRHSGKVYPITLSTDATSADLKSKAEELTQVPSARQKYMVKGGLSGEESIKIYPLIKPGSTVMLLGTPDANL
notes: Ubp6, Saccharomyces cerevisiae, UniProt P43593, UBL domain, residues 2-81; Used ^15N-enriched or unlabeled; also called UBL domain of Ubp6; source: E. coli, purified
Kd (Rpn1^391-642 [7]): 43 ± 22 µM | Kd (Rpn1^391-642(AKAA)): 36 ± 21 µM
